Results from patent US20240301076A1 (CEPHALON, published 2024).
Positions count from the first letter of the chain named. Names may count otherwise.

Assays:
human CXCR2 [1] = biological target: T1, human CXCR2 (human, UniProt P25025 1-360); assay: cell-based or functional assay
T1 sequence: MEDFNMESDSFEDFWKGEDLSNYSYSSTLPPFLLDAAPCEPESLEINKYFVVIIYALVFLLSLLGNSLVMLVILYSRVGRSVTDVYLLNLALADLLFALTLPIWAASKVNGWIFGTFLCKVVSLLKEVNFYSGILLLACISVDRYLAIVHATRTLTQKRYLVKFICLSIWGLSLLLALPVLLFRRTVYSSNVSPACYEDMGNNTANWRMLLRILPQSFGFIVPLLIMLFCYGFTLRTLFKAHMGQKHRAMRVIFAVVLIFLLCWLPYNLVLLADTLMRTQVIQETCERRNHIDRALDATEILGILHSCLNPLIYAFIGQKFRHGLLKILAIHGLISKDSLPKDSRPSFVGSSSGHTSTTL

human CXCR2 [2] = biological target: T1, human CXCR2; assay: flow cytometry, CXCR2-transfected Expi293F cells
Description: (§1) Harvested cells were resuspended in FACS buffer (1×PBS+0.5% (w/v) bovine serum albumin (BSA)+2 mM EDTA pH 7.2). Approximately 2×10⁵ cells were added per well in a 96-well round-bottomed plate. Cells were pelleted by centrifugation at 400 g for 5 mins at 4° C. and supernatants discarded. 25 μL of each test antibody or control antibody was added to the cells and incubated for 30 minutes at 4° C. Cells were washed twice in 100 μL FACS buffer followed by centrifugation at 400 g for 5 mins at 4° C.
(§2) For detection, 50 μL of secondary antibody (Table 2) was added to relevant samples. Commercially available antibodies that bound to transfected CXCR family members were used as positive controls to ensure that the cells were expressing the receptors. Cells were washed twice in 200 μL of FACS buffer followed by centrifugation at 400 g for 5 mins at 4° C. Before sample acquisition, cells were resuspended in 100 μL of FACS buffer. Samples were acquired using the high throughput sampler on a FACSCanto™ II cytometer (Beckton-Dickinson).
Each variant heavy chain was co-expressed with the parental light chain and vice versa.

human CXCR2 [3] = biological target: T1, human CXCR2; assay: flow cytometry, transfected Expi293F cells
Description: as §1, §2
(§3) These antibody variable regions were then generated by gene synthesis and subcloned into mammalian expression vectors as described in General Methods. Antibodies were produced by co-expression of heavy and light chain plasmids in Expi293F™ cells and purified by protein A column chromatography as described in General Methods. Where several heavy and/or light chains were identified from the same hybridoma cells, each heavy chain was paired with each light chain and the resulting antibodies given suffix a, b, c, etc. Purified antibodies were desalted into Sorensen's PBS pH 5.8 and tested by flow cytometry for binding to Expi293F™ cells transfected with human CXCR2 or human CXCR1 and mock transfected Expi293F™ cells.

human CXCR1 = biological target: T2, human CXCR1 (human, UniProt P25024 1-350); assay: flow cytometry, transfected Expi293F cells
T2 sequence: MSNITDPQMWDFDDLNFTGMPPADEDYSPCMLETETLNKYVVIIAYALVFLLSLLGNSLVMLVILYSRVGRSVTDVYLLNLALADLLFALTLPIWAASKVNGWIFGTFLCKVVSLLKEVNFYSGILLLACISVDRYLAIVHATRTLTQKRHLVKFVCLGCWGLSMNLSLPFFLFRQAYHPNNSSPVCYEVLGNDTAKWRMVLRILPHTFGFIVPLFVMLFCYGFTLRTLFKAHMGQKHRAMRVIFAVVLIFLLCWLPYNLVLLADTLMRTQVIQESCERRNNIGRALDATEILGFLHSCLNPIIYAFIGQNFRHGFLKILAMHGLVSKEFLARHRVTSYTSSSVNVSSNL
Description: as §1, §2, §3

B1: BKO-4A8 variant VL N95aQ (antibody, human IgG4 S228P, lambda, V domains shown)
VH: EVQLLESGGGLVQPGGSLRLSCAASGFTFSSSTMSWVRQAPGKGLEWVSAISGRGRNTYYADSVKGRFTISRDNSRNTLYLQMNSLRAEDTAVYYCAIQMGYWGQGILVTVSS
VL: QSALTQPPSASGSPGQSVTISCIGTSSDVGGYNYVSWYQQHPDKAPKLMIYEVNKRPSGVPDRFSGSKSGNTASLTVSGLQAEDEADYYCSSYAGNNQFGVFGGGTKLTVLG
notes: IgG4 S228P, lambda; parental heavy chain; also called 4A8 VL N95aQ
Q: For B1, which “IC50, CXCL1, Tango assay” value (human CXCR2 [1]) is on record?
A: 0.213 nM

Q: What about the “IC50, CXCL8, Tango assay” value (human CXCR2 [1]) of the same binder?
A: 0.084 nM

Q: And the “Fold change in binding relative to BKO-4A8” value (human CXCR2 [2])?
A: 1 fold

B2: BKO-1B10 (antibody, human IgG4 S228P, lambda, V domains shown)
VH: QLQLQESGPGLVKPSETLSLTCTVSGGSIRTSSYYWGWIRQPPGKGLEYIGSIYYSGTTYYNPSLKSRVTMSVDTSKNQFSLKLSSVTAADTAVYYCARHGRVREVPPFDYWGQGTLVTVSS
VL: SSELTQDPAVSVALGQTVRITCQGDSLRYYYASWYQQKPGQAPVLVIYDENSRPSGIPDRFSGSSSGNTASLRITGTQAEDEADYYCNSRDTSGNHWAFGGGTKLTVLG
notes: recombinant human IgG4 S228P, lambda
Q: Does B2 bind (human CXCR2 [3])?
A: binds

Q: Does B2 bind (human CXCR1)?
A: no binding

B3: BKO-1A1 (antibody, human IgG4 S228P, lambda, V domains shown)
VH: B2 VH with L84M, T92S
VL: B2 VL with R73S
notes: as for B2
Q: Does B3 bind (human CXCR2 [3])?
A: binds

Q: Does B3 bind (human CXCR1)?
A: no binding

B4: BKO-1D1 (antibody, human IgG4 S228P, lambda, V domains shown)
VH: EVQLLESGGGLVQPGGSLRLSCAASKLTFKNSAMSWVRQAPGKGLEWVSAITGSGGRTYYADSVKGRFTISRDNSKNTLYLQMNSLRAEDTAIYYCAIQMGYWGQGILVTVSS
VL: B1 VL with I23T, D43G, D62A, N96S, Q98N
notes: as for B2
Q: Does B4 bind (human CXCR2 [3])?
A: binds

Q: Does B4 bind (human CXCR1)?
A: no binding

B5: BKO-1H3 (antibody, human IgG4 S228P, lambda, V domains shown)
VH: B1 VH with F29L, S31R, T33S, M34T, A40T, R54S, R56G, N57R, R76K, M100L
VL: QSALTQPASVSGSPGQSITISCTGTSSDVGGYNYVSWYQQHPGKAPKLMIYDVSNRPSGVSNRFSGSKSGNTASLTISGLQAEDEADYYCSSYTSSSTWVFGGGTKLTVLG
notes: as for B2
Q: What does the source list for B5?
A: binding result (human CXCR2 [3]): binds; binding result (human CXCR1): no binding

B6: BKO-2D8 (antibody, human IgG4 S228P, lambda, V domains shown)
VH: B1 VH with F27Y, S30T, S49T, R56G, N57R, R76K, M100L, Y102N
VL: B1 VL with I23T, V29I, D43G, M49V, K55M, D62A, N97D, Q98N, T109S
notes: as for B2
Q: Does B6 bind (human CXCR2 [3])?
A: binds

Q: Does B6 bind (human CXCR1)?
A: no binding

B7: BKO-3A9_b (antibody, human IgG4 S228P, lambda, V domains shown)
VH: QVQVQQSGPGLVKPSQTLSLTCAISGDSVSSNSAAWNWIRQSPSRGLEWLGRTYYRSKWYNDYAVSLKRRITIRPDTSRNHFSLHLSSVTPEDTAVYYCVRAYCGGGSCLDYWGQGTLVTVSS
VL: QSALTQPASASGSPGQSITISCTGTSSDVGNYNRVSWYQQHPGKVPKLMIYEGSKRPSGISNRFSGSKSGNTASLTISGLQPEDEADYFCCSYAGSNTLVFGGGTKLTVLG
notes: as for B2
Q: Does B7 bind (human CXCR2 [3])?
A: binds

Q: Does B7 bind (human CXCR1)?
A: no binding

B8: BKO-3D6 (antibody, human IgG4 S228P, lambda, V domains shown)
VH: EVQLVESGGDLVQPGRSLRLSCAASGFTFDDYAMHWVRQAPGKGLKWVSGITWNSGNKRYADSVKGRFTISRDNAKNSLYLQMNSLRAEDTALYYCAKDMKGSGTYFPAFDYWGQGTLVTVSS
VL: not shown
notes: as for B2
Q: Does B8 bind (human CXCR2 [3])?
A: binds

Q: Does B8 bind (human CXCR1)?
A: no binding

B9: BKO-3F4 (antibody, human IgG4 S228P, lambda, V domains shown)
VH: B1 VH with F27L, S32Y, T33A, R54S, R56G, N57K, T58I, R76K, M100V, I107T
VL: B1 VL with I20M, I23T, S36T, D43G, N54S, D62A, N96P, Q98N
notes: as for B2
Q: What does the source list for B9?
A: binding result (human CXCR2 [3]): binds; binding result (human CXCR1): no binding

B10: BKO-8H8_b (antibody, human IgG4 S228P, lambda, V domains shown)
VH: EVQLLESGGGLVQPGGSLRLSCAASGLTVSSYAMSWVRQAPGKGLEWVSAISGSGGKIYYADSVKGRFTISRDNSKNTLYLQMNSLSAEDTAVYYCAIQVGYWGQGTLVTVSS
VL: B1 VL with I20M, I23T, S36T, D43G, M49V, N54S, D62V, N96P, Q98N, V101I
notes: as for B2
Q: Does B10 bind (human CXCR2 [3])?
A: binds

Q: Does B10 bind (human CXCR1)?
A: no binding

B11: BKO-4F10 (antibody, human IgG4 S228P, lambda)
heavy: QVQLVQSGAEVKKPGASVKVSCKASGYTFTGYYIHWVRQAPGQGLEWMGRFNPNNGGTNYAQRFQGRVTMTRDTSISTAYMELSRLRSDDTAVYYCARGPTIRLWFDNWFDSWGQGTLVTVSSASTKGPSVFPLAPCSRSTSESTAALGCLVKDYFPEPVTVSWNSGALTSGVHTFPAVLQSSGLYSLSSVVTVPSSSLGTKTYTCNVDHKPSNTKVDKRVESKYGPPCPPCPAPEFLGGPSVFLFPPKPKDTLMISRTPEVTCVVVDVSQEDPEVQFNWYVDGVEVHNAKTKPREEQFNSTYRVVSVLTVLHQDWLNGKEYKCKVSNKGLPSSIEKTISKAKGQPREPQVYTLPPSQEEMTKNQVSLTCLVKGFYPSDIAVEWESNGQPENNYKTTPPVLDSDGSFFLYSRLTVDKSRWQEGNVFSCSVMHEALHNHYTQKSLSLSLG
light: QSALTQPASVSGSPGQSITISCTGTSSDVGGYNYVSWYQQHPGKAPKLMIYDVSNRPSGISNRFSGSKSGNTASLTISGLQAEDEADYYCSSYTSSSTWVFGGGTKLTVLGQPKAAPSVTLFPPSSEELQANKATLVCLISDFYPGAVTVAWKADSSPVKAGVETTTPSKQSNNKYAASSYLSLTPEQWKSHRSYSCQVTHEGSTVEKTVAPTECS
notes: as for B2
Q: What does the source list for B11?
A: binding result (human CXCR2 [3]): binds; binding result (human CXCR1): no binding

B12: BKO-5G6_c (antibody, human IgG4 S228P, lambda)
heavy: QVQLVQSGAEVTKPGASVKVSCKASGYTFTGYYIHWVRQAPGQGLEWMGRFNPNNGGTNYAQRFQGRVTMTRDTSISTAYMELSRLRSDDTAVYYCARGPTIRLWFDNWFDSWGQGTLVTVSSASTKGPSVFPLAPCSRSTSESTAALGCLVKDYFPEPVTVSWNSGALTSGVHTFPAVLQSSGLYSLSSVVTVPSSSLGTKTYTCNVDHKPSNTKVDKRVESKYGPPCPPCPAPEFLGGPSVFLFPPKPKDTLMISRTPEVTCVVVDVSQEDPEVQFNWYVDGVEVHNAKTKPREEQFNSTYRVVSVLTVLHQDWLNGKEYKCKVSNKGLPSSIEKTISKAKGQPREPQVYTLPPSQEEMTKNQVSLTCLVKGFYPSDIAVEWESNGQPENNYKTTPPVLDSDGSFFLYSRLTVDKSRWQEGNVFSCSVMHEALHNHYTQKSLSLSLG
light: B11 light with K106T
notes: as for B2
Q: Which results are given for B12?
A: binding result (human CXCR2 [3]): binds; binding result (human CXCR1): no binding

B13: BKO-5E8 (antibody, human IgG4 S228P, lambda, V domains shown)
VH: EVQLLESGGGLVQPGGSLRLSCAASGFTFSSYAMSWVRQAPGRGLEWVSAIRGSGAGTYYADSMKGRFTISRDNSKDTLYLLMNSLRAEDTAVYYCSKLEAVSGTGKYFQHWGQGTLVTVSS
VL: SYELTQPPSVSVSPGQTANITCSGDTLGDKFACWYQQKPGQSPVLVIYQDTKRPSGIPERFSGSKSGITATLTISGTQAMDEADFYCQAWNSRGVVFGGGTRLTVLG
notes: as for B2
Q: Does B13 bind (human CXCR2 [3])?
A: binds

Q: Does B13 bind (human CXCR1)?
A: no binding

B14: BKO-5G11 (antibody, human IgG4 S228P, lambda, V domains shown)
VH: EVQLLESGGGLVQPGGSLRLSCAVSGFTFSNYAMTWVRQAPGKGLEWVSAISGRGSRTYYADSVKGRFTISRDTSKNTLYLQMNSLRAEDTAVYYCAKMDYWGQGTLVTVSS
VL: B1 VL with I23T, D43G, Y51F, N54S, N96S, Q98N
notes: as for B2
Q: Does B14 bind (human CXCR2 [3])?
A: binds

Q: Does B14 bind (human CXCR1)?
A: no binding

B15: BKO-6A1_b (antibody, human IgG4 S228P, lambda, V domains shown)
VH: QVQLKQWGAGLLKPSETLSLTCAVYGGSFSGYYWTWIRQPPGKGLEWIGEINHSGSTNYNPSLKSRVTMSVDTSKNQFSLKLRSVTAADTAVYYCARGEVRGLITLYWYFDVWGRGSLVTVSS
VL: B2 VL with Y29S, D49G, E50K, S52N, R73T, T77A, T92S, W97V, A98V
notes: as for B2
Q: Which results are given for B15?
A: binding result (human CXCR2 [3]): binds; binding result (human CXCR1): no binding

B16: BKO_7C11 (antibody, human IgG4 S228P, lambda, V domains shown)
VH: B15 VH with K5Q, T35S, G55R, S56N, M69I, R83S, L103V, I104F, S117T
VL: SSELTQGPAVSVALGQTVRITCQGNSLRFYYASWYQQRPGQAPILVIYDKNNRPSGIPDRFSGSSSGNTASLTITGAQAEDEADYYCNSRDSSGYYMIFGGGTKLTVLG
notes: as for B2
Q: Which results are given for B16?
A: binding result (human CXCR2 [3]): binds; binding result (human CXCR1): no binding

B17: BKO-7G10_a (antibody, human IgG4 S228P, lambda, V domains shown)
VH: B14 VH
VL: B1 VL with I23T, D43G, Y51F, N54S, N96S, Q98N
notes: as for B2
Q: Does B17 bind (human CXCR2 [3])?
A: binds

Q: Does B17 bind (human CXCR1)?
A: no binding

B18: BKO-7H8_b (antibody, human IgG4 S228P, lambda, V domains shown)
VH: B1 VH with F27Y, S30T, S49T, R56G, N57R, R76K, M100L, Y102N
VL: B1 VL with I23T, V29I, D43G, M49V, K55M, D62A, N97D, Q98N, T109S
notes: as for B2
Q: Does B18 bind (human CXCR2 [3])?
A: binds

Q: Does B18 bind (human CXCR1)?
A: no binding
